{
  "source": "paper PMC11992676",
  "biological_target": "T1, TRF1 (recombinant, in-house purified) (UniProt P54274)",
  "T1 sequence": "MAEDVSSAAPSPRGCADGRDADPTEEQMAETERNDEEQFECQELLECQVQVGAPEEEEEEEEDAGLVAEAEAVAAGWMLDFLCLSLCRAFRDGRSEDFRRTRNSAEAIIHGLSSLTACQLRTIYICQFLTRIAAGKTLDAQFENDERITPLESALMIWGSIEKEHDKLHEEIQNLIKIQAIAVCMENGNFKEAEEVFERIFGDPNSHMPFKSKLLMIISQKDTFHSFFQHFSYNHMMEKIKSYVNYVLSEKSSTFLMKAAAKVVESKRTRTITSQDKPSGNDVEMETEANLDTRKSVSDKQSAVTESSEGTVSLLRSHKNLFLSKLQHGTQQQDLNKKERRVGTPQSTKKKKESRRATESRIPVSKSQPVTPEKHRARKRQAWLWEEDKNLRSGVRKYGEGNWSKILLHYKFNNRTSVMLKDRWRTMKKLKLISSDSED",
  "test": "EMSA",
  "details": "2 mM Mg2+, 50 mM Tris-Cl pH 8.0, 2 mM MgCl2, 150 mM KCl, 0.5 mM DTT, 10% glycerol, 5 nM oligonucleotide, 30 min room temperature, 1% agarose gel in 1x TBE at 4 C",
  "data": [
    {"sequence": "GACCATGCTTAGGGTTAGGGTTAGGGTTAGGGTTATCATACAA (double strand) [TelDNA]", "values": [
      {"measurement": "binding signal", "setting": "scale: fold", "result": 1}
    ]},
    {"sequence": "GACCAUGCUUAGGGUUAGGGUUAGGGUUAGGGUUAUCAUACAA / TTGTATGATAACCCTAACCCTAACCCTAACCCTAAGCATGGTC [Telomeric DNA:RNA hybrid]", "values": [
      {"measurement": "binding signal (fold lower affinity than TelDNA)", "setting": "strand 1 is RNA, strand 2 is DNA", "result": 7}
    ]},
    {"sequence": "GACCATGCTTATCCCCATTTGTATTATCCCCATTTCATACAAA (double strand) [Non-TelDNA]", "values": [
      {"measurement": "binding signal (fold lower binding than TelDNA)", "result": 5}
    ]}
  ]
}
